B1: ZNF8 (parent)
chain: VHVIGVEEPSVGASMLFDIREST

Variants of: B1
Assay: protein stability index of a GFP-peptide fusion (GPS, HEK-293T) (PSI 1-6); higher = more stable
Conditions: c terminus: native
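Note: lentivirally expressed fusions sorted by FACS into six bins by GFP to DsRed ratio, PSI derived from sequencing read proportions per bin multiplied by bin number.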

Protein stability index of substitutions, site by site:
S10: C 1.85, D 2.48, E 2.25, F 1.26, G 2.1, H 2.1, I 2.91, K 1.99, L 1.84, M 1.52, N 2.23, P 2.03, Q 2.28, R 1.71, T 2.24, V 2.16, W 1.68, Y 2.02
V11: A 2.38, C 1.91, D 2.69, E 2.87, F 2.17, G 2.28, H 2.42, I 1.91, K 2.27, L 1.85, M 1.82, N 2.35, P 2.65, Q 2.1, R 1.9, S 2.33, T 2.24, W 1.44, Y 1.92
G12: A 1.93, C 1.78, D 2.87, E 2.45, F 2.1, H 2.1, I 1.78, K 1.9, L 1.52, M 1.71, N 2.29, P 2.16, Q 1.88, R 2.4, S 2.19, T 1.56, V 1.7, W 2.88, Y 2.95
A13: C 1.34, D 2.69, E 2.61, F 2.8, G 2.74, H 1.95, I 2.78, K 2.2, L 2.41, M 1.57, N 2.31, P 2.51, Q 1.98, R 1.97, S 1.96, T 1.93, V 1.87, W 3.12, Y 1.66
S14: A 1.86, C 1.54, D 2.62, E 2.28, F 2.28, G 1.92, H 1.95, I 3.13, K 2, L 2.31, M 2.31, N 2.4, P 2.63, Q 2.12, R 1.9, T 2.26, V 3.14, W 3.13, Y 2.78
M15: A 2.88, C 2.49, D 2.93, E 3.67, F 1.62, G 3.15, H 2.4, I 2.59, K 3.24, L 1.74, N 2.75, P 2.78, Q 2.75, R 2.47, S 2.78, T 2.3, V 1.79, W 2.34, Y 2.2
L16: A 2.52, C 2.19, D 3.53, E 3.17, F 1.58, G 2.95, H 2.71, I 2.06, K 2.64, M 1.94, N 3.6, P 2.48, Q 2.87, R 2.98, S 2.83, T 2.44, V 2, W 1.41, Y 2.31
F17: A 3.44, C 2.71, D 3.79, E 3.91, G 3.66, H 3.17, I 1.74, K 3.4, L 2.03, M 2.52, N 3.33, P 3.77, Q 3.41, R 3.08, S 3.11, T 2.68, V 2.21, W 2.28, Y 2.15
D18: A 1.69, C 2.4, E 1.31, F 2.25, G 1.65, H 1.39, I 3.24, K 1.42, L 3, M 2.02, N 2.48, P 1.84, Q 1.98, R 1.59, S 1.75, T 1.69

— the supplement of paper PMC10567573
